The nanobody polyreactivity screen of Harvey et al. (2022)

Assay: yeast display, Sf9 membrane polyspecificity reagent, FACS + sequencing; frameworks hold sequencing errors
Method in brief: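 Sorting gates, low and high (top ~1%), were placed on anti-HA fluorescence to track expression and on streptavidin fluorescence to track reagent binding. A clone's polyreactivity label is taken from the gate it came out of. The reagent was 10% biotinylated, detergent-solubilized Sf9 membrane, applied for 1 hour at 4 °C to galactose-induced yeast display cells.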

Sequence	polyreactivity (PSR sort gate)
QVQLVESGGGLVQAGGSLRLSCAASGFTFTRYAMGWYRQAPGKERELVAVITSSGTSTYYADSVKGRFTISRDNAKNTVYLQMNSLKPEDTAVYYCAARTHRRDFYYWGQGTQVTVSS	high polyreactivity
QVQLVESGGGLVQAGGSLRLSCAASGFTFRAYTMGWYRQAPGTERGLVAAITYSGGRTYYADSVKGRFTISRDNAKNTVYLQMNSLKPEDTAVYYCAAVRTKVWRGPEMDYWGQGTQVTVSS	high polyreactivity
QVQLVESGGGLVQAGGSLRLSCAASGSTSSPNAMGRYRQAPGKEREFVAAISRSGGSTYYADSVKGRFTISRDNAKNTVYLQMNSLKPEETSVHYCAATVTVFYTRYYYWGQGTQVTVSS	high polyreactivity
QVQLVESGGGLVQAGGSLRLSCAASGRIFVFYAMGWYRQAPGKVREFVATISYSGDTTYYADSVKGRFTISRDNAKNTVYLEMNSLKPEDTAVYYCAADQVPSYYYVPLGYDSWGQGTQVTVSS	low polyreactivity
QVQLVESGGGLVQAGVSLRLSCAASGNIFRAYAMGWYRQAPGKERELVAAIDTTGGRTYYADSVKGRFTISRDNAKITVYLLMKSLKPEDTAVYYCAVRAPAYPYYRGFDYWGQGSQVTVSS	low polyreactivity
QDQLVESRGGLVQAGGSLRLSCAASGRTFYINAMGWYRQAPGKERELVAAISWGGGRTYYADSVKGRFTISRDNAKNTVYLQMNSLKPEDTAVYYCAAEVAYYKYDYWGQGTQVTVSS	high polyreactivity
QVQLVESGGGLVQAGGSLRLSCAASGRTLYKNTMGWYRPAPGKERELVAAINYSGGSTYYADSVKGRFTISRDNAKNTVYLQMNSLKPEDTAVYYCAADYYDSTGEYDYWGQGTQVTVSS	high polyreactivity
QVQLVESGVGLDQARVSLRLSCAASGFTFGQYVMGWYRQAPGKEREFVAIISRSVDSTYYADSVKGRFTISRDNAKNTVYLQMNSLNPEDTAVYYCNARGKRRGKIPYSSYASSYDSWGQGTQVTVSS	high polyreactivity
QVQLVESGGGLVQAGGSLRLSCAASGRTFRVYAMGWYRQAPGKERELVAAITFNGGSTYYADSVKGRFTISRDNAKNTVYLQMNSLKPEDTAVYYCAAATRRSYDHVQMYYWGQGTQVTVSS	high polyreactivity
KVQLVESGGGLVQAGGSLRLSCAASGSTFSLYAMGWYRQAPGKERELVASIRWSGGRTYYADSVKGRFTISRDNAKNTVYLQMKSLKPEDTAVYYCAAAWRYGYGYWGQGTQVTVSS	high polyreactivity
QVQLVESGGGLVQAGGSLRLSCAASGRTFVPYAMGWYRQAPGKEREFVAAISSRVASTYYADSVKGRFTISRDNAKNTVYLQMNSLKPEDTAVYYCARTNPAYSIYDYWGQGTQVTVSS	low polyreactivity
QVQLEESGGGLVQAGGSLRLSCAATGGTFRDNVMGWYRQAPGKERELVAAISRNGGSTYYADTVKGRFTISRDNAKNTVYLQMTSLKPEDTAVYYCAARHLSAGGYYWGQGTQVTVSS	high polyreactivity
QVQLVESGGGLVQAGGSLRLSCAASGSIFFGNAMGWYRQAPGKERELVAAISTTGGSTYYADSVKGRFTISRDNAKNTVYLQMISLKPEDTAVYYCNADRATWWEQWWYDYWGQGTQVTVSS	low polyreactivity
QVQLLESGGGLVQAGGSLRLSCAASGITLYRYTMGWYRQAPGKEREFVAAISRSGGSTYYADSVKGRFTLSRDNAKNTVYFQMKSLKPDDTAVYYCAAPWYEKTTRPYGSWGQGTQVTVSS	high polyreactivity
QVQLVESGGGLVQAGGSLRLSCAASVRISESNDMGWYRQAPGKERELVAAISSSGGSTYYADSVKGRFTISRENAKNTVYLQMNSLKPEDTAVYYCNAVYYRTVLKIGVYEYDFWGQGTQVTVSW	low polyreactivity
QVQLVESGGGLVQAGGSLRLICAASGSIFRGYTMGWYRQAPGKERELVATISWSGGSTYYADSVKGRFTISRDNAKNTVYLQMNSLKPEDTAVYYCAAVWYLGIPYDYWGQGTQVTVSS	high polyreactivity
QVQLVESGGGLVQAGGSLRLSCAASGSTFKYNAMGWYRQAPGKERELVATISGTGGSTYYADSVKGRFTISRDNAKNTVYLQMNSLKPEDTAVYYCAARWGRSQLRYYYWGQGTQVTVSS	high polyreactivity
